The source of these data is publication PMC8809517, “Cofactor-independent RNA editing by a synthetic S-type PPR protein”.

Common to all, as to experiment: high-throughput RNA pulldown from lysate on Ni-NTA beads; HRP: 50 mM Tris pH 8, 150 mM NaCl, 1 mM beta-mercaptoethanol, 50 ug/ml BSA, 3 ug/ml yeast RNA, 0.5% heparin; ITC and FP: Tris pH 8, 200 mM KCl, 5% glycerol; MST: 50 mM Tris pH 8, 200 mM NaCl, 1 mM DTT, BSA, heparin, 0.05% Tween 20
What all share (conditions): tags: N-terminal His-eGFP

Series [1] has as its target T1, GFP-9S library array, motif 4 ND D124L (synthetic construct, D124L).
T1 chain: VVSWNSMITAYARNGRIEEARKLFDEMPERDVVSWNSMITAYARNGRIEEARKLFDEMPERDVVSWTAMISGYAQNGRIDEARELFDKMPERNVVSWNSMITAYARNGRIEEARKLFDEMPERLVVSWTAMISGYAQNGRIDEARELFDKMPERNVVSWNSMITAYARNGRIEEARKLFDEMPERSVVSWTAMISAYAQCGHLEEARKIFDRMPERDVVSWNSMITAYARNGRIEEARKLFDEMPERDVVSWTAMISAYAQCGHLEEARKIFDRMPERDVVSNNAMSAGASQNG

The target of series [2] is T2, GFP-9S library array, motif 4 ND N98D;D124K (synthetic construct, N98D;D124K).
T2 chain: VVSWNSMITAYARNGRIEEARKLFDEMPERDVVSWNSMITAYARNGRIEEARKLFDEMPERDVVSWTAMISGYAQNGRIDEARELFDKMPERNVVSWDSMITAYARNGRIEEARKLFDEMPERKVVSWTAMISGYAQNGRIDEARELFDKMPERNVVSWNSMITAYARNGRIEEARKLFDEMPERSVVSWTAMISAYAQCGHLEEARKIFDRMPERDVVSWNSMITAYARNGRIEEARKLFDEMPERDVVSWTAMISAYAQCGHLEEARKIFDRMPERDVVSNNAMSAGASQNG

Series [3] addresses T3, GFP-9S library array, motif 4 ND N98F;D124F (synthetic construct, N98F;D124F).
T3 chain: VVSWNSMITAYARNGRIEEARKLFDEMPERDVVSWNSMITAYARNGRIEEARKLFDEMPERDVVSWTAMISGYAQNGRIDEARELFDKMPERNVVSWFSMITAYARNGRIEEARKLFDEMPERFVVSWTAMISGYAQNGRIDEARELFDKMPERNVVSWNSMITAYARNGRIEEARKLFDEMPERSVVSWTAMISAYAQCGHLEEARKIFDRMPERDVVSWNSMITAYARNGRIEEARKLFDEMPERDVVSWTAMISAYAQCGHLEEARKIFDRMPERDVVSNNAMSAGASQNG

The target of series [4] is T4, GFP-9S library array, motif 4 ND N98L;D124Q (synthetic construct, N98L;D124Q).
T4 chain: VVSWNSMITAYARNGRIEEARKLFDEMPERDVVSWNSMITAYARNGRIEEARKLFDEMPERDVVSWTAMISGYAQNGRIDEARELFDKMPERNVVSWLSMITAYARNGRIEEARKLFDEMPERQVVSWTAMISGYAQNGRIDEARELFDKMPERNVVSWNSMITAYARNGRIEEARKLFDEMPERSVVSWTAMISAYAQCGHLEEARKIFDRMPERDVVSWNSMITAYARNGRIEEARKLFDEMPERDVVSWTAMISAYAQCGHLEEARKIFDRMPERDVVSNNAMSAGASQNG

The target in series [5] is T5, GFP-9S library array, motif 4 ND N98Q;D124G (synthetic construct, N98Q;D124G).
T5 chain: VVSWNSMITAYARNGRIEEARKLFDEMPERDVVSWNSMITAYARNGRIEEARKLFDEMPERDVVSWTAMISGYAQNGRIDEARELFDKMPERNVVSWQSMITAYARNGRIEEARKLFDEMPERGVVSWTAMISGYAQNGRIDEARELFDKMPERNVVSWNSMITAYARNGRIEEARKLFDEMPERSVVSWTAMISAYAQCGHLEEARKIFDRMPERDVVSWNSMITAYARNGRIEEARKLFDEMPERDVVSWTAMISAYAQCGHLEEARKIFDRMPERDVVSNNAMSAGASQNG

As for AUUAAACGUGA (ssRNA) [IR-rpoA-A], the Kd in series [1] (label: 5' IRDye 800CW) is 291 nM; in series [2] (label: 5' IRDye 800CW) it was 334 nM; in series [3] (label: 5' IRDye 800CW), 200 nM; in series [4] (label: 5' IRDye 800CW), 80 nM; in series [5] (label: 5' IRDye 800CW) it was 373 nM.
As to AUUAUACGUGA (ssRNA) [IR-rpoA-U], the Kd in series [1] (label: 5' IRDye 800CW) is 96.6 nM; in series [2] (label: 5' IRDye 800CW), 475 nM; in series [3] (label: 5' IRDye 800CW) it was 140 nM; in series [4] (label: 5' IRDye 800CW), 58.9 nM; in series [5] (label: 5' IRDye 800CW) it was 321 nM.
Regarding AUUACACGUGA (ssRNA) [Cy5-rpoA], the Kd in series [1] (label: 5' Cy5) came to 105 nM; in series [2] (label: 5' Cy5), 154 nM; in series [3] (label: 5' Cy5), 76.4 nM; in series [4] (label: 5' Cy5) it was 60 nM; in series [5] (label: 5' Cy5) it was 154 nM.
As to AUUAGACGUGA (ssRNA) [Cy5-rpoA-G], the Kd amounted to 131 nM in series [1] (label: 5' Cy5); 134 nM in series [2] (label: 5' Cy5); 92.1 nM in series [3] (label: 5' Cy5); 68.5 nM in series [4] (label: 5' Cy5); 166 nM in series [5] (label: 5' Cy5).
